According to patent US20160244499A1:

Assays:
[1] = biological target: C-terminally biotinylated IL-13Rα1 ectodomain (human) (UniProt P78552); assay: SPR (Biacore T100), biotinylated IL-13Rα1 on SA chip, cytokine/IL-4Rα complex as analyte
[2] = biological target: C-terminally biotinylated γc ectodomain (human) (UniProt P31785); assay: SPR, comparison of affinities for γc and IL-13Rα1
[3] = biological target: C-terminally biotinylated γc ectodomain (human) (UniProt P31785); assay: SPR (Biacore T100), biotinylated γc on SA chip, cytokine/IL-4Rα complex as analyte, 1:1 model
[4] = biological target: C-terminally biotinylated γc ectodomain (human) (UniProt P31785); assay: SPR, cytokine/IL-4Rα complex on immobilised γc
[5] = biological target: C-terminally biotinylated IL-13Rα1 ectodomain (human) (UniProt P78552); assay: Table 1, affinity for IL-13Rα1; method for this row not stated
[6] = biological target: C-terminally biotinylated IL-13Rα1 ectodomain (human) (UniProt P78552); assay: SPR (Biacore T100), biotinylated IL-13Rα1 on SA chip, cytokine/IL-4Rα complex as analyte, 1:1 model
[7] = biological target: T1, γc on human cell lines (Ramos, HH, U937) (human) (UniProt P31785); assay: cell-based or functional assay
T1 sequence (looked up): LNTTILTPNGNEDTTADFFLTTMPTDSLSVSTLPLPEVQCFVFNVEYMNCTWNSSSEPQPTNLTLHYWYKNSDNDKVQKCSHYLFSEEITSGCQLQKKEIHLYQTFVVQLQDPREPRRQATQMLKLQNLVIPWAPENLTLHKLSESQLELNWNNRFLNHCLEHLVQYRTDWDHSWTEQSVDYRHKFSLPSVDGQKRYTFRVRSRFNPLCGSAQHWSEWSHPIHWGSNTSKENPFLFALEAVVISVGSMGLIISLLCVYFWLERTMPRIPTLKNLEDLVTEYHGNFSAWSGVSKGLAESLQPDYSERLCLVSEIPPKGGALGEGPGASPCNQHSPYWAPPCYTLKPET

Chain of wild-type IL-4, free recombinant cytokine (P05112 other isoform, or with tags, fused parts or gaps): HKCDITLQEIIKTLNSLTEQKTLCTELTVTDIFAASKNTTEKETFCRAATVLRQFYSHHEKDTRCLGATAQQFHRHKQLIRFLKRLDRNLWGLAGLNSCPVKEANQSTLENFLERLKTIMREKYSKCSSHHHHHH

## RGA/IL-4Rα binary complex (from UniProt P24394 26-202)
[1]
  Kd: 21 µM
[2]
  selectivity for the Type-I receptor complex over the Type-II receptor: 6 log
[3]
  Kd: 0.00089 µM
  koff: 0.00059 s⁻¹
  kon: 660000 M⁻¹ s⁻¹
[4]
  fold faster on-rate (against IL-4): 6 fold
  fold higher affinity (against IL-4/IL-4Rα): 3700 fold
  logs gained in binding affinity (against IL-4): 4 log

## IL-13 (from UniProt P35225 35-146) (ligand)
[5]
  Kd: 0.03 µM

## wild-type IL-4/IL-4Rα binary complex (from UniProt P24394 26-202)
[3]
  Kd: 3.3 µM
  koff: 0.31 s⁻¹
  kon: 95000 M⁻¹ s⁻¹
[6]
  Kd: 4.2 µM
  koff: 0.17 s⁻¹
  kon: 41000 M⁻¹ s⁻¹

## wild-type IL-4, free recombinant cytokine (from UniProt P05112 25-153) (ligand)
[7]
  mean MFI of STAT6 phosphorylation, Ramos cells, 100 pg/ml, 20 minute stimulation: 7.7 MFI
  percentage decrease in STAT6 phosphorylation caused by 50 µg/ml of anti-γc, Ramos cells, 100 pg/ml cytokine: 58%
  reduction in STAT6 phosphorylation on blocking γc in U937 cells: 44%
